In article PMC4227786:

Assays:
[1] = target: 14-3-3θ (UniProt P27348); test: co-immunoprecipitation; settings: reference: wild type hnRNPA1; sites S4,S6
[2] = target: 14-3-3σ (UniProt P31947); test: co-immunoprecipitation; settings: reference: wild type hnRNPA1; sites S4,S6

## hnRNPA1 (from UniProt P09651) S4AS6A
[1]
  binding against the reference: lost
[2]
  binding against the reference: lost
